Like-named read-outs stand apart in the source and are kept apart here.

For assay [1], the target named is full length human PD-1 on HEK293/hPD-1 cells (human) (UniProt Q15116). Kind of assay: FACS dose response, HEK293/hPD-1 cells; control.
Assay [2] has as its target PD-1 chimera: extracellular domain of human PD-1 with trans-membrane and cytoplasmic domains of human CD300a, on Jurkat/AP1-Luc cells (human) (UniProt Q9UGN4). The assay can be described thus: cell-based or functional assay.
Assay [3] deals with recombinant human PD-1 dimer expressed with a C-terminal mouse IgG2a Fc tag (human). Kind of assay: competition ELISA: 100 pM hPD-1-mFc to coated hPD-L2-hFc; NBI.
The target of assay [4] is full length human PD-1 on HEK293/hPD-1 cells (human) (UniProt Q15116). Kind of assay: FACS dose response, HEK293/hPD-1 cells; control. The source holds these as a separate data set.
The target of assay [5] is dimeric biotinylated human PD-1 protein with a C-terminal human Fc tag (human). The assay can be described thus: competition ELISA: 200 pM biot-hPD-1-hFc to coated hPD-L1-mFc; NBI. For orientation: ELISA stands for enzyme-linked immunosorbent assay.
Assay [6] deals with recombinant human PD-1 dimer expressed with a C-terminal mouse IgG2a Fc tag (human). Kind of assay: competition ELISA: 1.5 nM hPD-1-mFc to coated hPD-L1-hFc; NBI.

For hIgG4 isotype control (antibody), in assay [1], the Max Geom. Mean MFI @ 100 nM was 809 MFI. For the same substance, the Emax mean [%] @ 100 nM in assay [2] is 98%. With Isotype control 2 (antibody), the % blocking at 100 nM antibody in assay [3] was -27%. Regarding mIgG1 isotype control (antibody), the values for the Max Geom. Mean MFI @ 100 nM in assay [1] and in assay [4] were 858 MFI and 200 MFI, respectively. The like results for mIgG2a isotype control (antibody) were, in that order, 352 MFI and 239 MFI.

For the substance Isotype control 1 (antibody), the % blocking at 50 nM antibody in assay [5] was determined as 19%. Moreover, in assay [6], the % blocking at 200 nM antibody is -3%.

The record behind these values is US20150203579A1.
